# According to patent US20230064978A1, “CYCLIC PEPTIDE RECEPTOR LANTHIONINE SYNTHETASE C-LIKE PROTEIN (LANCL) AND USES THEREOF” (LATERAL IP PTY LTD, priority 2019, published 2023):
# Entries after “also recorded” stand apart in the source; their conditions may differ. Bridges are numbered along the chain shown (N, C = ends). Where no end group is shown, it is not given here.
# Key:
# [1] = tested on: Dorsal root ganglion (DRG) neurons; assay: Cell-binding fluorescence on cultured DRG neurons, paclitaxel neuropathy model; type: cell-based; conditions: DRG neurons from paclitaxel-treated vs untreated mice; probe 5 μM (FIG. 1)
# Procedure: The cell-binding fluorescence protocol can be briefly described as follows. […] Model of chemotherapy-induced peripheral neuropathy was generated using paclitaxel in female C57/B16 mice—[…] Paclitaxel or vehicle (10 ml/kg body weight) injected intravenously (i.v.) on day 1, day 3 and day 5. Mechanical allodynia was confirmed using von Frey (VF) filaments 9 days after starting vehicle or paclitaxel treatment (left and right paws). Each of the ten C57/B16 mice (vehicle control and paclitaxel treated) were euthanized by CO2 inhalation and individually dissected.
# L5-L6 DRGs were rapidly dissected and placed in Petri dishes containing dissection medium. Meninges were removed.
# Each DRG pool was successively: • incubated in dissociation buffer (0.5 mg/ml Dispase, 2.5 mg/ml collagenase, 6 mg/ml BSA, 10 mM HEPES) for 30 min at 37° C. under gentle agitation at 800 rounds/min; • washed; • triturated in culture medium and filtered on a 40 μm filter; • re-suspended in 1 ml culture medium supplemented with nerve growth factor (NGF) 250 ng/ml.
# Dissociated cells from each pool were counted, seeded on Poly-D-Lysin- and Laminin-coated μ slides at the density of 4×10^4 cells/well and incubated at 37° C. 5% CO2. The medium was changed daily for 3 days. […]
# human recombinant LANCL1 = molecular target: T1, human recombinant LANCL1 (Homo sapiens, UniProt O43813); assay: In-gel fluorescence: photolabelling of recombinant LANCL1 with PAL probes, with or without excess competitor; type: binding
# T1 construct: purchased ABCAM ab181923; host or cells: E. coli
# Procedure: The in-gel fluorescence protocol can be briefly described as follows:
# 1. LANCL1 Labelling, Assay on 96 Well Plate, Volume of the Reaction 40 μl in PBS
# 3 μg/well of human recombinant LANCL1 (ABCAM catalog no. ab181923, 1 mg/ml; expressed in E. Coli and incorporating an N-terminal 23 amino acid hexaHis tag; UniProtKB/Swiss-Prot Accession no: O43813);
# • Vehicle DMSO • ±LAT8881 (a cyclic peptide fragment of human growth hormone; SEQ ID NO:1) • SEQ ID NO:1) as competitor @ 25, 50, 100 or 200 μM, pre-incubation 10 min, 4 μl of a stock solution 10-fold concentrated • ±LAT9991-PAL, LAT7771-PAL or LAT9993-PAL probes @ 1 μM, incubation 30 min at room temperature on a plate agitator (protected from light), 4 μl of a stock solution @10 μM
# • Irradiation @ 365 nm 20 min (4° C., on a support containing ice) Transfer 40 μl in a clean Eppendorf tube
# • Reduction: DTT 10 mM, 30 min @ 56° C. • Alkylation: Iodoacetamide 30 mM, 45 min @ RT Click-iT AzideTamra of 60 μL samples
# (§1) • Acetone Precipitation −20° C. ON • Dry pellet resuspended in 30 μL 1% SDS in 50 mM Tris-HCl pH 7.5 • Photolabeled LANCL1 was tagged with tetramethylrhodamine (TAMRA) azide @100 μM TAMRA azide by copper click chemistry using the Click-iT Protein Reaction Buffer Kit (ThermoFisher Scientific) during 30 minutes • Precipitation using the chloroform-methanol method, pellet was air-dried for 10 min at room temperature, resuspended in 30 μL SDS loading buffer (Bio Rad's XT Sample Buffer containing 2.5% v/v 2-mercaptoethanol) and heated (60° C., 30 min)
# (§2) • SDS-PAGE (4-15% Criterion™ TGX Stain-Free™ Protein Gel, Bio Rad) • Analyzed by in-gel fluorescence scanning using a ChemiDoc™ MP Imaging System (Bio Rad) with a green LED light as an excitation source and a BP600/20 nm emission filter
# human recombinant LANCL3 = molecular target: T2, human recombinant LANCL3 (Homo sapiens, UniProt Q6ZV70); assay: In-gel fluorescence: photolabelling of recombinant LANCL3 with PAL probe, with or without excess LAT8881; type: binding
# T2 construct: human recombinant LANCL3 (amino acid residues 1-420); 10xHis (N); Myc (C); purchased ABCAM ab163277; host or cells: E. coli
# Procedure: An in-gel fluorescence protocol was followed to determine whether the cyclic peptides bound to LANCL2 and LANCL3. Briefly:
# 1. LANCL2 and LANCL3 Labelling, Assay on 96 Well Plate, Volume of the Reaction 40 μl in PBS
# • […] of human recombinant LANCL3 (amino acid residues 1-420; ABCAM catalog no. ab163277, ˜0.07 mg/ml; expressed in E. Coli and incorporating an N-terminal 10×His tag and a C-terminal Mvc tag; UniProt Accession no: Q6ZV70);
# • Vehicle DMSO • ±LAT8881 (a cyclic peptide fragment of human growth hormone; SEQ ID NO:1) • SEQ ID NO:1 as competitor @ 50, 100 or 200 μM, pre-incubation 10 min, […], incubation 30 min at room temperature on a plate agitator (protected from light), 4 μl of a stock solution @10 μM
# • Irradiation @ 365 nm 20 min (4° C., on a support containing ice) • Transfer 40 μl in a clean Eppendorf tube
# • Reduction: DTT 10 mM, 30 min @ 56° C. • Alkylation: Iodoacétamide 30 mM, 45 min @ RT Click-iT AzideTamra of 60 μL samples
# as §1, with “for” for “during”, “Rad” for “Rad's”
# as §2
# T1 sequence (O43813 with tags, fused parts or gaps): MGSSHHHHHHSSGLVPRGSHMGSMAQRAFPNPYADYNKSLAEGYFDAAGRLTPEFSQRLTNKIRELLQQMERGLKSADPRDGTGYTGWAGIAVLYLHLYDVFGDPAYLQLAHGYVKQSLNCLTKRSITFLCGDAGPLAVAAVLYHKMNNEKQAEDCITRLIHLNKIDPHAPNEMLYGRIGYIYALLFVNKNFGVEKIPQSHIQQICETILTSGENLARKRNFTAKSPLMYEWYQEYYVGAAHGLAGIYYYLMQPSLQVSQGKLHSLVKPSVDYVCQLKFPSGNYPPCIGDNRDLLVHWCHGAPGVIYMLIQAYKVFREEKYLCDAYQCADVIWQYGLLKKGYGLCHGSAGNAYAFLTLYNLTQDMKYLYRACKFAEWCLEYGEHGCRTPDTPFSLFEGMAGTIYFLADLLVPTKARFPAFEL
# T2 sequence (Q6ZV70 whole entry, the tested form may be a part): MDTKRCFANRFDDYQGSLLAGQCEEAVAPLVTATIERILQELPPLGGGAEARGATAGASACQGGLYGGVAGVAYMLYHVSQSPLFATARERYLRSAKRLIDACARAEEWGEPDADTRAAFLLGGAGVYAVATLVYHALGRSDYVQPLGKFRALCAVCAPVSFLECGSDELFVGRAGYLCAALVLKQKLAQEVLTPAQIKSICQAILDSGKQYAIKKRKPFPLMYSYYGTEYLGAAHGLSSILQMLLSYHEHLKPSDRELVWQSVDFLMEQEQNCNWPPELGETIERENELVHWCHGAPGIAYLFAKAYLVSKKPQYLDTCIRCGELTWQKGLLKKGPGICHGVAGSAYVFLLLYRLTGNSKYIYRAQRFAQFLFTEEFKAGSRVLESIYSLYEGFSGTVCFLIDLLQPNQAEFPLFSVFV
Binding of PAL probe to recombinant LANCL1 (human recombinant LANCL1; in-gel fluorescence after UV (365 nm) cross-linking),Binding of PAL probe to recombinant LANCL3 (human recombinant LANCL3; in-gel fluorescence after UV cross-linking),Substance,Binding of PAL probe to DRG neurons [1],"Inhibition of LAT7771-PAL binding to recombinant LANCL1 by excess competitor (human recombinant LANCL1; probe LAT7771-PAL, excess LAT8881)","Inhibition of LAT9991-PAL binding to recombinant LANCL1 by excess competitor (human recombinant LANCL1; probe LAT9991-PAL, excess unlabelled competitor)","Inhibition of LAT9993S-PAL binding to recombinant LANCL1 by excess competitor (human recombinant LANCL1; probe LAT9993S-PAL, excess LAT8881)","Inhibition of LAT9991-PAL binding to LANCL3 by excess competitor (human recombinant LANCL3; probe LAT9991-PAL, excess LAT8881)","Inhibition of LAT9993-PAL binding to recombinant LANCL3 by excess competitor (human recombinant LANCL3; probe LAT9993-PAL (as in FIG. 11 legend), excess LAT8881)"
bound to recombinant LANCL1,binds,LAT9991-PAL: cyclic peptide of SEQ ID NO:12 (LAT9991) conjugated to the PAL (Photo-Activated Labelling) grouping (CRSVEGSCG; disulfide 1-8 (inferred); also: PAL group on N-terminal Cys-Arg part),"can be seen in DRG neurons from mice treated with paclitaxel (neuropathic pain model), but not in control untreated mice; also recorded: only to neurons from treated and neuropathic animals",,,,,
,,"YLRIVQCRSVEGSCGF [LAT8881, a cyclic peptide fragment of human growth hormone]",,inhibited,inhibited,inhibited,inhibited,inhibited
